Assay: soluble fraction after stress (log2 fold change); higher = more stays soluble; pooled small domains, quantitative proteomics
Settings: stress: 75 degC
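Note: 20 min heating vs room temperature control held 20 min.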

Sequence | soluble fraction (log2)
HMKGLDAAVVDLFKSKGASIVFAGNRLSLSGEVADQATKDELLAKAKAILASLGASVSLDDKLMVKGAKAS | 0.0761
HMKGMIKVASMSLGADLGLYSRHLKYLGIVHRVVEESGGQSVYIQKLNDLHTAKESLELYLKNELKI | -2.56
HMKGQNRSEITAGARVKVVQKQDQRTGALTEGIVRDILTRSPHHPHGIKVRLESGIVGRVKDVL | -0.312
HMKGSIMIETILKELKKNNKGFNFLLEKFDISEDELMKIINDLIHDKKVFLNSNNKYEIVSD | -0.72
HMKGTVLAPGIILNADDQRFTYLQEDVASVAKDGAAIVLKQGDEVDFIADGQTAKQIYLTKT | 0.289
HMKGVPGIGDYVKLSGGSTVGKVLSISGKKAEVAFGLLRTTTELSKLEKVRKPKELLQSGVSS | -0.0317
HMKGVTVDGDNITVDGEKQTLISVNKNLDGDVVSYTYRTADGKLRTSRNVEVAQEINKQQLLKSIDAQ | 0.0529
HMKGWPDREQAEKIWQQGIDYAIEHHTMSPQIVKEYIFHTQGIARSAALIAARLPDMDTEKAYVLGLLHD | -0.377
HMKIAEALNLRGDADSYERQEAIWLLEHIVGMSALELKYRGEQDLTEDQLQQYRSGLQRLEQGEPLAYVIG | -0.965
HMKIDLKQIEGVLDELAKVKGSLITILQKTQETYGYLPKEAIIYISERTGIAESEIMGVATFYTQFRL | -0.45
HMKIDLTPQEEKIYSVLETELTLDEIIMKTSIKAGEALAILMDLELKKLVASVAGGKYRRKA | 0.386
HMKIEETLGKTAQVYIPIPQYLSGIGKVTLSVRGSLRELDAMTEEEKIPSNTIVRIVKVQDQVLFVKRA | -3.77
HMKIHNSIREITDFDRKQNSNIPSDAKYRIVFYTPQGNKTIIPEELQGLQYYRSKELAEIALNKKLNSN | -0.197
HMKILKQLEAIIEKEGLNESAKQFYLREISELDKEKQQEIINLVDKMEQAGFKNNLASAFSEVTEDIPQF | -0.138
HMKILNYQSLVGKKGITKSMLRPAGIVEIEGRRYDVVTRGEFIEPGKMITVDEVQGNRIIVQIERE | -0.758
HMKIPIIYQPLKNAKRIKIYIPYELKELRTIFKKINTTFWHPNQKLWSIIYTQENVALIKNLFGKNYKIVN | -0.499
HMKIQEVDYSTFLNMLNEKSIAQVEIQDNQIAFNSNQEGNKQIYVTGRIEEDTELVNRLQAAGVQFSRV | 0.0484
HMKIRIIKTASNAKAVQIVSYKNNKRIVLQHIGSAHTDETLNDLKILAEEWIKDYNHQLSIF | -2.88
HMKISDLPAAQVYREIVHAWPKAAAYADLAPINNGGMQRWRDVVHEWVLRGYNPANLRGMLEWYKAGIPTR | -0.731
HMKISDMIETNLKFLRGKHSISQAELAESLGIPRTTLSAYERGFVEPNIELMLKMAKYFNVSLDDLIAYN | -2.07
HMKISQSRKAGKLVLESELKRGGVSLDQYRGGRMSRILELIGVKSLNELLTDLGTGKKTGALVAERFFSGL | -0.618
HMKITFNPVSSGRLDIILAEKTGYTRSYVKQLVEKQAVTINGEAAKKSGQNVKAGDEIALDEP | 0.151
HMKITIDSVERDETFRLIWGTGWKPKNKIQELAAIQAKKNGLGRMNEVAGLAAWRGIWQQVAEQVAQEVL | -2.03
HMKITKIWFTADHIFGRDEEGKEYSQSLLWYPKLSAASDEERSQYTFGYDGIHWRSLDEDISFESF | -3.01
HMKIVFGHVKWFDIDKGFGFLVLEDEGGDVLLHANVLKNFGRTSVSEDTKIEFEFLETDKGRQVSTIYNIL | -3.28
HMKIVQDIAFSDFLNEVEKDNVLDVNIKGDLINGNLADGRKFKTYTPYDPNLIEKLSNKNVTINVEPYN | 0.512

Sequence | soluble fraction (log2)
HMKKAENEKLNIPYDVTEFLASSIKDDIRMMEGAMVKLLALSSLTKQDITQSLAKRVIQDVLGSSA | -0.209
HMKKAMIISTKRGTPAAELDKIIREFEAKGLSVTMIRGTDYNVFGLVGDTTVIDEKQVRANPYVENVQRV | -0.157
HMKKATYDVMVREALVSFKKKGATLQSIKKKIKADYAIEANATAVKSAIQKGMEAGSIRKSYDLYFFMD | -2.8
HMKKDDLKQINGIGTTIEKKLNEIDIYNFYQISNLSKEDIETISEKIKTFPGKIERDNWVGQAQELL | 0.0235
HMKKIFIDAPLDTMITIPKDTTHHLLTVFRHKMEKPVLVGGSDGRTGVYQIQDVVDGEASAKLVGDIQ | 0.738
HMKKISAKQQQILDYISSYSLEHGYPPSVREIGAEMGLRSPSTVHAHLKKLQEAGYLEPNEHKSRALTP | -0.146
HMKKITTANPLDINRATLAQLDTLPGIGPVTAERIIAYRSKVGRINSLDELKKISGLGGMKFEEIKPLLRV | 0.0978
HMKKKLPRYLQEQKYGNGMVFYRYNPTARYIDEGIVTRTNLGSDLSIAKKKANEFNKLIDAFLQQQSE | -1.16
HMKKMSFKEAFLKYVEIKDNPYNMESVKMLVSLQPLIVKAYSILGVDKVRRLNYVKTKIQDAIINGD | -2.7
HMKKNLELGLLPHEVKSILGEPDFIDTITDIDGIRYDMWSYTKLNVTKRLYFEDLFLVRMEE | -3.31
HMKKNNTTPIPKTLNYVNIKGLSNEAVERLNKHKPSTLGQASRLEGITPAATSLISIAIKKNQLLEKAES | 0.0664
HMKKPAERRKELVDAAAHLFAEKGYENTSVRDILDAVGGAPGMFYYYFKSKQDIYVAVMEDF | -3.71
HMKKPANLISEDRMVEVLYDVIIINTAKGVNKQLLQNNINNPLNYIYRSHGIDSLQFAESNAYYTS | -0.563
HMKKSGFFSAGDRIQLTDNKGRQYSFNITEGKEFHTHQGFIKHDDLIGMPEGSVVSINSTTGVVQKFMAF | 0.32
HMKKSIRIFELMKAKVAAEIFDQMILEGKIEDVFDIIVRLKDSNVSNIMKTMSVENSSRLVQKLERYNKD | -3.12
HMKKVRIPDDPEEAYRKALKTAMNIVGYKDNTEFTLREKLSERGYSGETVDAVAEFMKSKGYV | -0.0562
HMKKVTMQDIANILNISRVTVWKVLNNQPGVSKQLRDQILLTAKETGYLKPGQEAEAYLEENNIYFEG | -0.272
HMKKYDIKEAQEIAEINRIPGLVTTSHGRRVYFDPKIMQYVSEEQIVKKYGQKTVKMLDQWYVSNILNK | -0.21
HMKKYLIIDAANEKIIFKIIDNNKTYTNDYENSRKNFDRFAVLLFNFLNKNMISFDTIDKAL | -0.118
HMKLARGEFEIMAKFIKEISGISLEQNKTYLIESRLSDLAESEGVKTFSDFFFKAKFNKILKEKIIDAI | -1.13
HMKLHFTINGVHYTWYKQFIRGIQIRELGNIPREDELYLDLPDGWKDDFIEDDEIVDLARPGVEHFISRAK | -4.84
HMKLIIVPNLVGQSRRSVEISLQQIGLRIDTVYTEFNPDYPKGTVAWQFPKSGDHIKKGMGLQITVSQG | -0.391
HMKLINEDLNNEIVFEENKVNLLVIENKKKFVQFIQEIIKQINGDEGKFSLFDINTELKIHDKIDII | 0.174
HMKLIPLTDMRGQLRSGAPLPWGVRDAQGNLLLGKGHVIASDDMLEALLARGMFVDAEEAKAARG | 0.0132
HMKLISVAVMRASDAAEIAGGTDSKTLMYRAGLGLFQSWDWHGKIDIVTGSGNNAGDGYVLALLL | 0.14
HMKLNKRQYAYQVIRSRILDGTYVPGQRIIIDQIAKEVNSSHIPVREAIHQLESEQLIDYEPNIGAIVKG | -0.242

Sequence | soluble fraction (log2)
HMKLSALRDKIKEHLLRQIQNGELQVGKTINLAALSRVTGISVTPIREALTQLEQAQVIQAVPNRGFVVA | -0.418
HMKLSIGGTIEKLRRNKGLSHQQLANALGVTPDTVEKWEINAAYPDITLLSPIARLLGTTLDALLMF | -1.77
HMKLSKLTKPELDEIFRNANFTEEEEKVFWLLARGKSLEQISAKTFLPIATVNRRVKSIKDKIG | -0.436
HMKLTKPKLIQLIHIAKSKLNMDELSYRVLLDNLTGKTSTTKMTVGELLKVYESMKDKGFKPQV | -0.993
HMKLTTRQTEIINIVKAEQPISGEKIAQNLGLSRATLRNDLSILTMTGLLDAKPKVGYFYTGQ | -0.976
HMKLVESALSILEEAVDRDFHGNLGDAARYFDIPYQTIYSWLKSRKRVPSLRALEPVLEKLGVSFTT | -2.01
HMKLVTIPNVIGKTKEDAMKTLKDLGVTVTVETKESEKDDGTVIAQSKAEGTKLTAGENVTITVSKKKK | ≥ 1.04
HMKMATITKRTNPSGAVVYRAQVRVKREGYPPYSESRTFSKKSLATEWAKRREFEIETNPDLLFN | -1.76
HMKMLEINDNDSVGLKNLKTQYNHNQKVIENFQLEINKVINDGELPDKYLLDGMEKYQKLNMQIMSTIEKQ | 0.0503
HMKMPNGYGSVYKLSGNRRKPWAARVTDGWVNDTKTKKSKQKYKFIGFYETRKEALLALADYNANP | -2.05
HMKMSLKENLLELLQKSSGEFLSGERAAETLGVSRTAVWKAVTSLKNEGYNIESVTNRGYRFS | -0.34
HMKNANGYGSITKLKGNRRKPYMVRITVGRDENGFPIRKVLGYYSSKANAVAALSDYNREPYDI | -1.78
HMKNENSLLVSRLAEEKIINRAKLVLMEYLKLSEPQAHRYIEKQAMDLQISRAEVAARVLETYE | -1.35
HMKNEVENLSYMINRIIEYRDLNNLSNKNLANKIGISEALLSYILNGRRKLSKEIQRKIALFLLND | -1.99
HMKNFAPVWGEEGAEFGKEVDTGFRLRIVEKEKDVNDLFEVIQKHTIQSQWKPGSTGTESIYKRI | 0.886
HMKNHIEERRKARGMTQQQLASELGVSRQTIISLENGKYNPSILLAHSIARLFGERIEDIFILR | -2.45
HMKNINTNIGKNLKRIRKLRGLTIDALATSSGVSKSMISEIERGIRNPSITIIWSLANALKTPLNYFLKE | -1.46
HMKNKFYEEFSDYIFKHTGIHYAEANYYQLDARINKLMKFLETSDENDVLKAIQGGAVKDQRVHQMIVDLA | -2.16
HMKNKRERLGIISEILRMQVIGSQEELLDILRAKGYDVTQATLSRDLKVLKVAKTPLSNGAYKYVLPPQ | -1.39
HMKNLSQAEFMYLFKILAFGSTDPDNHPEMAATGMEIAKMLQGLLLSGNVLADILRKNQNVQFWL | 0.0572
HMKNNITFSEFLHEVDNGRVIKVNIQGNNITGILADGKSFNTYTPNDPSLIEKLTSKGVSISATPI | 0.13
HMKNNLKGSPIIIAGGYGVGSKENFNLLFDLAKVLNAEVGASRAAVDAGFVEHDRQIGQTGVTVRP | 0.143
HMKNNYQYIVDQIKQLILDGELIVGDRLPSERDLSEMYQVSRASVREALKALETIGLLESRHGGGNYIVNH | -1.28
HMKNQIGFKIKNARRKASISQADLSAKLGISSSYLNLIESGKRNVNVDLLLKVSDVLNIELKDLSK | -2.06
HMKNTYTVVSGDTLWGIASRKLGGGSNWTKIYDANAATIESVANRRRGGRGSDHGHWIYPGTVLTI | -0.298

From the domain aggregation screens of Martell et al. (2025)
